# Test results: US4285932A, “Enzyme derivatives for use in the treatment of venous thrombosis” (Beecham Group Limited, priority 1978, dated 1981)
# B1: p-Anisoyl: porcine plasmin, active site serine blocked by p-anisoyl; porcine column of Table 1 (protein, UniProt P06867 20-579; P06867 580-809, looked up)
# Plasmin heavy chain A: DSLDDYVNTQGAFLFSLSRKQVAARSVEECAAKCEAETNFICRAFQYHSKDQQCVVMAENSKTSPIARMRDVVLFEKRIYLSECKTGNGKNYRGTTSKTKSGVICQKWSVSSPHIPKYSPEKFPLAGLEENYCRNPDNDEKGPWCYTTDPETRFDYCDIPECEDECMHCSGEHYEGKISKTMSGIECQSWGSQSPHAHGYLPSKFPNKNLKMNYCRNPDGEPRPWCFTTDPNKRWEFCDIPRCTTPPPTSGPTYQCLKGRGENYRGTVSVTASGHTCQRWSAQSPHKHNRTPENFPCKNLEENYCRNPDGETAPWCYTTDSEVRWDYCKIPSCGSSTTSTEYLDAPVPPEQTPVAQDCYRGNGESYRGTSSTTITGRKCQSWVSMTPHRHEKTPGNFPNAGLTMNYCRNPDADKSPWCYTTDPRVRWEYCNLKKCSETEQQVTNFPAIAQVPSVEDLSEDCMFGNGKRYRGKRATTVAGVPCQEWAAQEPHRHSIFTPETNPRAGLEKNYCRNPDGDDNGPWCYTTNPQKLFDYCDVPQCVTSSFDCGKPKVEPKKCPAR
# Plasmin light chain B: VVGGCVSIPHSWPWQISLRHRYGGHFCGGTLISPEWVLTAKHCLEKSSSPSSYKVILGAHEEYHLGEGVQEIDVSKLFKEPSEADIALLKLSSPAIITDKVIPACLPTPNYVVADRTACYITGWGETKGTYGAGLLKEARLPVIENKVCNRYEYLGGKVSPNELCAGHLAGGIDSCQGDSGGPLVCFEKDKYILQGVTSWGLGCALPNKPGVYVRVSRFVTWIEEIMRRN
# modifications: plasmin p-anisoyl acylated active site
# B2: N-methyl-p-guanidinobenzoyl: human plasmin, active site serine blocked by N-methyl-p-guanidinobenzoyl (protein, UniProt P00747 20-580; P00747 581-810, looked up)
# Plasmin heavy chain A: EPLDDYVNTQGASLFSVTKKQLGAGSIEECAAKCEEDEEFTCRAFQYHSKEQQCVIMAENRKSSIIIRMRDVVLFEKKVYLSECKTGNGKNYRGTMSKTKNGITCQKWSSTSPHRPRFSPATHPSEGLEENYCRNPDNDPQGPWCYTTDPEKRYDYCDILECEEECMHCSGENYDGKISKTMSGLECQAWDSQSPHAHGYIPSKFPNKNLKKNYCRNPDRELRPWCFTTDPNKRWELCDIPRCTTPPPSSGPTYQCLKGTGENYRGNVAVTVSGHTCQHWSAQTPHTHNRTPENFPCKNLDENYCRNPDGKRAPWCHTTNSQVRWEYCKIPSCDSSPVSTEQLAPTAPPELTPVVQDCYHGDGQSYRGTSSTTTTGKKCQSWSSMTPHRHQKTPENYPNAGLTMNYCRNPDADKGPWCFTTDPSVRWEYCNLKKCSGTEASVVAPPPVVLLPDVETPSEEDCMFGNGKGYRGKRATTVTGTPCQDWAAQEPHRHSIFTPETNPRAGLEKNYCRNPDGDVGGPWCYTTNPRKLYDYCDVPQCAAPSFDCGKPQVEPKKCPGR
# Plasmin light chain B: VVGGCVAHPHSWPWQVSLRTRFGMHFCGGTLISPEWVLTAAHCLEKSPRPSSYKVILGAHQEVNLEPHVQEIEVSRLFLEPTRKDIALLKLSSPAVITDKVIPACLPSPNYVVADRTECFITGWGETQGTFGAGLLKEAQLPVIENKVCNRYEFLNGRVQSTELCAGHLAGGTDSCQGDSGGPLVCFEKDKYILQGVTSWGLGCARPNKPGVYVRVSRFVTWIEGVMRNN
# modifications: plasmin N-methyl-p-guanidinobenzoyl acylated active site
# B3: O-Anisoyl: human plasmin, active site serine blocked by o-anisoyl (acylating agent of Example 15) (protein, UniProt P00747 20-580; P00747 581-810, looked up)
# Plasmin heavy chain A: B2 Plasmin heavy chain A
# Plasmin light chain B: B2 Plasmin light chain B
# modifications: plasmin o-anisoyl acylated active site
# B4: p-Acetamidobenzoyl: human plasmin, active site serine blocked by p-acetamidobenzoyl (acylating agent of Example 18) (protein, UniProt P00747 20-580; P00747 581-810, looked up)
# Plasmin heavy chain A: B2 Plasmin heavy chain A
# Plasmin light chain B: B2 Plasmin light chain B
# modifications: plasmin p-acetamidobenzoyl acylated active site
# B5: Acetylsalicycloyl: human plasmin, active site serine blocked by acetylsalicyloyl (acylating agent of Example 7) (protein, UniProt P00747 20-580; P00747 581-810, looked up)
# Plasmin heavy chain A: B2 Plasmin heavy chain A
# Plasmin light chain B: B2 Plasmin light chain B
# modifications: plasmin acetylsalicyloyl acylated active site
# B6: 3,3 Dimethylacryloyl: human plasmin, active site serine blocked by 3,3-dimethylacryloyl (acylating agent of Example 4) (protein, UniProt P00747 20-580; P00747 581-810, looked up)
# Plasmin heavy chain A: B2 Plasmin heavy chain A
# Plasmin light chain B: B2 Plasmin light chain B
# modifications: plasmin 3,3-dimethylacryloyl acylated active site
# B7: 3 Methyl 4-methoxybenzoyl: human plasmin, active site serine blocked by 3-methyl-4-methoxybenzoyl (acylating agent of Example 17) (protein, UniProt P00747 20-580; P00747 581-810, looked up)
# Plasmin heavy chain A: B2 Plasmin heavy chain A
# Plasmin light chain B: B2 Plasmin light chain B
# modifications: plasmin 3-methyl-4-methoxybenzoyl acylated active site
# B8: O-Toloyl: human plasmin, active site serine blocked by o-toluoyl (acylating agent of Example 9) (protein, UniProt P00747 20-580; P00747 581-810, looked up)
# Plasmin heavy chain A: B2 Plasmin heavy chain A
# Plasmin light chain B: B2 Plasmin light chain B
# modifications: plasmin o-toluoyl acylated active site
# B9: p-Ethoxybenzoyl: human plasmin, active site serine blocked by p-ethoxybenzoyl (acylating agent of Example 8) (protein, UniProt P00747 20-580; P00747 581-810, looked up)
# Plasmin heavy chain A: B2 Plasmin heavy chain A
# Plasmin light chain B: B2 Plasmin light chain B
# modifications: plasmin p-ethoxybenzoyl acylated active site
# B10: 2,4 Dimethoxybenzoyl: human plasmin, active site serine blocked by 2,4-dimethoxybenzoyl (acylating agent of Example 6) (protein, UniProt P00747 20-580; P00747 581-810, looked up)
# Plasmin heavy chain A: B2 Plasmin heavy chain A
# Plasmin light chain B: B2 Plasmin light chain B
# modifications: plasmin 2,4-dimethoxybenzoyl acylated active site
# B11: p-Anisoyl Human Plasmin (protein, UniProt P00747 20-580; P00747 581-810, looked up)
# Plasmin heavy chain A: B2 Plasmin heavy chain A
# Plasmin light chain B: B2 Plasmin light chain B
# modifications: Plasmin active-site p-anisoyl acylated
# notes: human plasmin acylated at the catalytic site with p-amidinophenyl p'anisate
# B12: p-Fluorobenzoyl: porcine plasmin, active site serine blocked by p-fluorobenzoyl (protein, UniProt P06867 20-579; P06867 580-809, looked up)
# Plasmin heavy chain A: B1 Plasmin heavy chain A
# Plasmin light chain B: B1 Plasmin light chain B
# modifications: plasmin p-fluorobenzoyl acylated active site
# B13: p-Methyl-t-cinnamoyl: porcine plasmin, active site serine blocked by p-methyl-trans-cinnamoyl (protein, UniProt P06867 20-579; P06867 580-809, looked up)
# Plasmin heavy chain A: B1 Plasmin heavy chain A
# Plasmin light chain B: B1 Plasmin light chain B
# modifications: plasmin p-methyl-trans-cinnamoyl acylated active site
# Test system: Human Plasmin
# Experiment: Deacylation (hydrolysis) of active-site blocked human plasmin, pseudo-first order rate constant followed by regain of activity on chromogenic substrate S-2251
# Format: biochemical
# Settings: active site serine substituted human plasmin; pH 7.4, 37° C.
# Experimental: (§1) The pseudo-first order rate constant is determined by hydrolysing the enzyme derivative under physiological conditions i.e. in isotonic aqueous media at pH 7.4 and at 37° C. At regular intervals aliquots are withdrawn and incubated with a chromogenic or fluorogenic protease substrate such as S-2251 (H-D-Val-Leu-Lys-p-nitroanilide 2HCl) and the rate of conversion of the substrate measured.
# (§2) The hydrolysis is followed until such time as the rate of conversion of substrate reaches a maximum. The rate constant k is then calculated by plotting: […]
# (§3) loge (1-^At /Amax) against t
# (§4) where Amax the maximum rate at which an aliquot converts substrate and At is the rate at which an aliquot converts substrate at time t.
row,Molecule,"Deacylation rate, Human Plasmin K sec^-1 × 10^4 [sec^-1 × 10^4]"
1,B1,1.10
2,B2,2.0
3,B3,1.82
4,B4,2.70
5,B5,4.70
6,B6,0.69
7,B7,0.70
8,B8,1.71
9,B9,1.10
10,B10,1.10

# Same assay, conditions: conditions specified for deacylation (isotonic aqueous media, pH 7.4, 37° C.)
row,Molecule,time for quantitative reactivation to free plasmin
1,B11,approximately two

# Test system: Porcine Plasmin
# Experiment: Deacylation (hydrolysis) of active-site blocked porcine plasmin, pseudo-first order rate constant followed by regain of activity on chromogenic substrate
# Format: biochemical
# Settings: active site serine substituted porcine plasmin; pH 7.4, 37° C.
# Experimental: as §1, §2, §3, §4
row,Molecule,"Deacylation rate, Porcine Plasmin K sec^-1 × 10^4 [sec^-1 × 10^4]"
1,B12,3.30
2,B1,0.33
3,B13,2.92

# Test system: streptokinase-human plasminogen activator complex
# Experiment: Deacylation of acylated streptokinase-human plasminogen activator complex to free enzyme
# Format: biochemical
# Settings: acyl-activator complex solution; 37° C.
# Experimental: as §1, §2, §3, §4
row,Molecule,pseudo-first order (deacylation) rate constant of regeneration to free enzyme [s⁻¹]
1,3-Methyl p-Anisoyl Streptokinase-human Plasminogen Activator Complex [Example 23],0.0001
2,p-Anisoyl Streptokinase-Human Plasminogen Activator Complex [Example 22],0.00027
